Drawing on PMC10167327 (2023), this text covers Kd for three molecules.

B1: Vtc4* (Vtc4(1–487), SPX and TTM domains of Vtc4 without the transmembrane domain) (domain or fragment)
chain: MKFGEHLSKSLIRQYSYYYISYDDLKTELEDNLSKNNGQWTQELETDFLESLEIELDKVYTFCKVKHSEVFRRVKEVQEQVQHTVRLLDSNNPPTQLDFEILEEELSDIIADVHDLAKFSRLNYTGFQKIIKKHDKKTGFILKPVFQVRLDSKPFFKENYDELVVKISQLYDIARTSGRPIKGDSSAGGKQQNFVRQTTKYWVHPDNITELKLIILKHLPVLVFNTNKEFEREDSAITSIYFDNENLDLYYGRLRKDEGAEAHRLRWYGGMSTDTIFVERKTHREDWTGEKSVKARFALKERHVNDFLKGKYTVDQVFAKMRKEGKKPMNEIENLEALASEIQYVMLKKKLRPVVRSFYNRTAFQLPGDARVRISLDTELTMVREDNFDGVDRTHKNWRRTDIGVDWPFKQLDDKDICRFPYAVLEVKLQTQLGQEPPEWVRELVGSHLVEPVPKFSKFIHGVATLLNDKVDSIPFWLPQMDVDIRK
modifications: RED-tris-NTA 2nd generation dye on the His tag (MST); RED-NHS 2nd generation dye (MST with TTM2)
B2: SPX2 (SPX domain of Vtc2, Vtc2(1–201)) (domain or fragment)
chain: MLFGVKLANEVYPPWKGSYINYEGLKKFLKEDSVKDGSNDKKARWDDSDESKFVEELDKELEKVYGFQLKKYNNLMERLSHLEKQTDTEAAIKALDADAFQRVLEELLSESTELDNFKRLNFTGFAKIVKKHDKLYPKYPSVKSLLEVRLKELPSHSEEYSPLLYRISFLYNILRSNFNTASEPLASASKFSSIVSNDIDM
B3: SPX2∆α7 (Vtc2(1–182)) (domain or fragment)
chain: MLFGVKLANEVYPPWKGSYINYEGLKKFLKEDSVKDGSNDKKARWDDSDESKFVEELDKELEKVYGFQLKKYNNLMERLSHLEKQTDTEAAIKALDADAFQRVLEELLSESTELDNFKRLNFTGFAKIVKKHDKLYPKYPSVKSLLEVRLKELPSHSEEYSPLLYRISFLYNILRSNFNTAS

Bounds are passed on as bounds.

The target of one test is SPX2 S189A (S. cerevisiae, UniProt P43585 1-201, serine 189 to alanine). In words: MST.
Another test deals with SPX2 S187A (S. cerevisiae, UniProt P43585 1-201, serine 187 to alanine). Nature of the test: MST.
For a further test, the target named is SPX2 K127A (S. cerevisiae, UniProt P43585 1-201, K127A). Nature of the test: MST.
The next test deals with SPX2 N121A (S. cerevisiae, UniProt P43585 1-201, N121A). Nature of the test: MST.
A further test concerns the target SPX2 Y19F (S. cerevisiae, UniProt P43585 1-201, Y19F). In words: MST.
Test [1] concerns the target B1. Nature of the test: MST; 2.5 mM 5-IP7.
Test [2] addresses B1. In words: MST; +100 mM NaCl.
Test [3] has as its target B1. Nature of the test: MST; 2.5 mM IP6.
In test [4] the target is TTM4 (TTM domain of Vtc4, Vtc4(192–487)) (S. cerevisiae, UniProt P47075 192-487, RED-tris-NTA 2nd generation dye on the His tag). In words: MST.
Sequence of TTM4 (TTM domain of Vtc4, Vtc4(192–487)) (P47075 192-487): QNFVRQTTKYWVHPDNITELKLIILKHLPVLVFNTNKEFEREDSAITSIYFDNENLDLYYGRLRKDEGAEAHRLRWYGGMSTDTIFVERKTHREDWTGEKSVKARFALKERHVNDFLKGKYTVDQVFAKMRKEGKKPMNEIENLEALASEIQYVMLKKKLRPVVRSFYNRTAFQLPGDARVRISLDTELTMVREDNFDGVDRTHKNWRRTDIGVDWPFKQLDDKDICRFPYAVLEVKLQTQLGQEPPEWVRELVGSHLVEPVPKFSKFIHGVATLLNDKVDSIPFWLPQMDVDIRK
Test [5] deals with B1. Nature of the test: MST.
The target of test [6] is B1. In words: MST. This is another data set of the same source.

As to B1, the Kd (usually the free concentration of one partner at which half of the binding sites on the other are occupied at equilibrium, for simple one-to-one binding) in the test with SPX2 S189A stood at 71 µM; in the test with SPX2 S187A, 30 µM; with SPX2 K127A it was 166 µM; with SPX2 N121A it was 118 µM; with SPX2 Y19F, 633 µM.
In the case of B2, the equilibrium dissociation constant (Kd) in [1] is more than 1200 µM; in test [2] it was 91 µM; in test [3], more than 300 µM; in [4], 264 µM; in test [5], 18.8 µM.
B3 yielded a Kd in test [6] of 500 µM.
